Source: the DeepSol protein solubility set

test: soluble on expression in E. coli; label from the status in PepcDB or PDB records

Sequence	soluble on expression in E. coli
DMPVEKIQEAEMAVEPKDGNMVEQPNDPVTNICQAADKQLVTLVEWAKRIPHFSDLPIDDQVILLRAGWNELLIAAFSHRSIDVKDGILLASGLHVHRSSAHQAGVGTIFDRVLTELVAKMRDMKMDKTELGCLRAIVLFNPDAKGLTDPSLVESLREKVYASLEEYCKQQYPEQPGRFAKLLLRLPALRSIGLKCLEHLFFFKLIGDTPIDTFLMEML	soluble
MTTTQDWIMIGGYGPESYNQQSSYQRALLEAAKDKMTEAISANLDLDLISNRFIVADFGCASGPNTFVAVQNIIDAVEEKYLRETGQNPEDNIEFQVLFNDLRINDFNTLFQTLPPGRRYFSAGVPGSFFNRVLPKQSFHIAVMSYAFLFTSKIPKGIMDRDSPLWNKDMQCTGFNPAVKKAYLEQYSIDTKNLLDARAEELMPGGLMLLLGSCMRDGVKMSETLKGTVMDFIGESLNDLAQKGVTEQEKVDTFKTSIYFAEQGEIRQIIEENGKFTIEAFEDIIHSKNEFPLDPKTLAISFKALYGAFISAHFGIEVMRKAFELVEVKAREQISRLHKVKPGMQYLIVLRKN	soluble
MSRFSITYKHDFYGGVEGEVTGGSALLCCPQEDIKSFLSEPVYSRLCASAWALTIECPSDPRTPSGTPGPLGTVPWRWGSLGMGGPLLPTAPTPRERERRGGQPAQRWSAEEGQEGSADGEAEATQELILAVVQEGAEGQCQGQGRKLLLQRGAHDPVTVHRAFKKEVGLGQVQLIPKGGTGVLHPGAGLKLHTHLQLVTGFVVIRRMHACLAQRYCSQPVVQCVFPS	not soluble
MLKLRFPLPVFRNAREIANGRNARMALKGLVANRAALIISPSFGSSQYFEQVVRLINAQSVRVIERSWQGEPSVEELSGVIGELEDFKPDYILALGGGSIIDGAKLAWLFYECPTLESELLYRPFALPSLRGRAKFAAIPTTVGAGSEVSSAAVMLDSVTNSKKAVVTHDFLPDLVILDPDLVSEVPPKVLKTTVADALSHAIEGYVSLIDNPLMNTFAEQAVSIIYRYRHQFSNDNWSSEMLSELQQAAMFAGWVQNHCIVGLSHAIAHQLGTFNIGHGLANGLLMPAVINFNYREHTAATKYEQLIYKSGLPNKEALLELFEVLVGEQKTDMHFSEQQLTTIAENALLDPAAKSNPVRFTENDVKEIVKQCL	not soluble
GAMVVSPAGADRRIPTWASRVVSGLARDRPVVVTKEDLTQRLTEAGCGRDPDSAIRELRRIGWLVQLPVKGTWAFIPPGEAAISDPYLPLRSWLARDQNAGFMLAGASAAWHLGYLDRQPDGRIPIWLPPAKRLPDGLASYVSVVRIPWNAADTALLAPRPALLVRRRLDLVAWATGLPALGPEALLVQIATRPASFGPWADLVPHLDDLVADCSDERLERLLSGRPTSAWQRASYLLDSGGEPARGQALLAKRHTEVMPVTRFTTAHSRDRGESVWAPEYQLVDELVVPLLRVIGKA	soluble
MSPLSGSLAPLNMKGLVKFQDVSFAYPNHPNVQVLQGLTFTLYPGKVTALVGPNGSGKSTVAALLQNLYQPTGGKVLLDGEPLVQYDHHYLHTQVAAVGQEPLLFGRSFRENIAYGLTRTPTMEEITAVAMESGAHDFISGFPQGYDTEVGETGNQLSGGQRQAVALARALIRKPRLLILDQATSALDAGNQLRVQRLLYESPEWASRTVLLITHQLSLAERAHHILFLKEGSVCEQGTHLQLMERGGCYRSMVEALAAPSDAAAHHHHHH	soluble
MAIWQGASRRLSTGAKVWRAAKKHKREMGRPAAETQVSDKIKRKIVRCRGANLKVKLEKTNYANVFDQANKVCKKVVVTNVIDNKANKHYIRRNVMTKGAIIETEMGKAKVTSRPGQDGVVNAILLTELEHHHHHH	soluble
MSLDEDAQISAVQDGFINFYADDAVTPYVALAARGPWVITLKGAVLYDAGGYGMLGFGHTPEAVLDAMARPQVMANVMTPSLAQRKLDRALRAEIGHTRGGCPFARFMCLNSGSEAVGLAARIVDTNAKLHTDPGARHAGATIKRLVVKGSFHGRTDRPGLYSDSSRKTYSKYLASYRDEDSVIAIAPYDIAALQRAFDEAARNHWFIEAVFLEPVMGEGDPGRALPAEFYAAARTLTRNHGSLLLVDSIQAGLRAHGVLSVVDYPGFEQLDPPDLETYSKALNAAQYPLSVLAVTEQAAQVYRKGTYGNTMTTNPRALDVACATLALFTPQIRDNIRLRGAQALRKLEALQAELGGLITKVQGTGLLFSCELAPQYKCYGAGSTEEWLRHHGVNVIHGGENSLRFTPHFGMDEAELDLLVGLIAKALKEGPRQAQAEAEGHHHHHH	not soluble
MSLAKPTDIRIRDVRISAEHINYRTPIKFGGRVVNDVTLLNVALDVETADGRRGSGFGSMPMGNVWAWPTSTTSGDATLQAMVDIGTAIAEAAPQLDLSGHPLELTAAAHSQYGSIASTIAHKANITEAVPKLATLVAASPVEAAIHDAYGKALGLNSYNVLGADFANTDLASYLSPEFAGEYLDRYTLRTPQPQMPLYHLIGALDPLDQDELQNPVGDGLPETLGDWITADGLTHLKIKLNGDNLDWDVARVAKIDAVAIDAQAKRGCKAWQYSLDFNERCPNVQYILDFLAKLSESSPEALDRVQYIEQPTSRDLRANPENRMHAAAKIKPVVIDESLIDYESLLLAREQGYSGVALKACKGQSEALLMGAAAQKFGMFLCVQDLTCPGASFLHSASLAARMPTIAAIEGNGRQYCPAGNAEWAKRYPSMFDITQGYVGTAVLTEPGLGYEGHHHHHH	not soluble
MPEQDIASLISEHRILLEEAVREVIRRYPQSLSPSENFSKHIFSSEQLKNIIDTVLAEAWQQSAMVVITLCDEKGECVLTYRMPGTSAEDIAVAGRAAEAAVSFAKENKQIIDPTLHNVIGGIDTSRGGCVVYCAGKVIGGIGISGASAEKNHLIALRAVDSLKSGSQK	not soluble
GSHMIDVPIPRFAVGIVIGRNGEMIKKIQNDAGVRIQFKPDDGTTPERIAQITGPPDRAQHAAEIITDLLRSVQAGNPGGPGPGGRGRGRGQGNWNMGPPGGLQEFNFIVPTGKTGLIIGKGGETIKSISQQSGARIELQRNPPPNADPNMKLFTIRGTPQQIDYARQLIEEKI	soluble
MTLPRLILPLLIAAACALGGCAYNPDLGRDQLLIVNDNNLARDGEKAWADALRTSHVSKEPRKNARVQAVGQRVIVAAGLAGRPWEYAVFLEEAPNAFVLPGGYVGVTVGLLSLVENDDQLAAVIGHEAGHVVARHAAERVSQETTSKVLLGIAKAAAGGTEFGKLLKDHGEDATRYGLLLPFSRKQELEADKLGVDFMQRAGYRPREAVKLWRNMQALDGGKSGGDLGSTHPSDAVRIQELERYLASKGWLEHHHHHH	not soluble
MSSRPPFGIVKPSKPTGNPSSGSSDLDSTAEPSPHERRMDSQRASSGSDVHGHPSLGSQSHNLTSAQSEGRNAHKDLHERHVHPSQGYQRHGSKAPAHGHPSSQGARRSQHELSNFPKLLANLMQDTKATASASCASNQDTLQPTASTMSDGEPEEDKVKLCGNRLEVGVTDNLAGTQRRKEQQQLQGAQAKNDIIYTLSTDNSILDIDHQPKREIAFTHSLLNISKIVNRMIPIRCSMFPGKSWKDPNNLKRPSIAKVHRTNHANELRTARFKANEKCYLLSVCQLISLKNPTFQGLSDSLNSPGDKKVAAEKHTCEDRTRRPTFPLDAFCSTPNEQYETMLLIAKSRTLSARMNVKMLHFPLGLLALEFDGIDSDMPNPDFHDNVLGYRDPHTTTPDSSSDHAAANLPPGRTRDYIPRKAKAPYINYVHSLSVMVEPLPSPPECCHLGSAEPVRPNFADIGAWSGSPTNPQSPSA	not soluble
MKMKEFLDLLNESRLTVTLTGAGISTPSGIPDFRGPNGIYKKYSQNVFDIDFFYSHPEEFYRFAKEGIFPMLQAKPNLAHVLLAKLEEKGLIEAVITQNIDRLHQRAGSKKVIELHGNVEEYYCVRCEKKYTVEDVIKKLESSDVPLCDDCNSLIRPNIVFFGENLPQDALREAIGLSSRASLMIVLGSSLVVYPAAELPLITVRSGGKLVIVNLGETPFDDIATLKYNMDVVEFARRVMEEGGIS	soluble
